{"source": "paper PMC10952505", "key": {"[1]": {"target": "human μ opioid receptor-Renilla luciferase II (human) (UniProt P35372)", "sequence (P35372 whole entry)": "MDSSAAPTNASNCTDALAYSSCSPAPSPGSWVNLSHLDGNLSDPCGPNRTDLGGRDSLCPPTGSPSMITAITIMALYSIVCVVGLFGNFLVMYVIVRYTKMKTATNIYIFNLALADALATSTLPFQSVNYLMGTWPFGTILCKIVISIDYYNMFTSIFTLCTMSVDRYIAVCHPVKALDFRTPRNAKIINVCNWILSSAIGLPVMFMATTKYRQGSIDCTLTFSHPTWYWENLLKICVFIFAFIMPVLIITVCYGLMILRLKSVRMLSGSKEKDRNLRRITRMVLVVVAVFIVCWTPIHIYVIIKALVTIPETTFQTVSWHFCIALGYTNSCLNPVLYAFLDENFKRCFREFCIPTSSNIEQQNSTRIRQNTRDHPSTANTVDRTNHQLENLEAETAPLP"}, "[2]": {"target": "HA-rat μ opioid receptor (rat) (UniProt P33535)"}, "[3]": {"target": "human μ opioid receptor-Renilla luciferase II (human) (UniProt P35372)", "remark": "listed apart in the source"}, "[4]": {"target": "HA-rat μ opioid receptor (rat) (UniProt P33535)", "remark": "listed apart in the source"}, "[5]": {"target": "endogenous μ opioid receptor of rat locus coeruleus neurones (rat (endogenous in locus coeruleus neurones)) (UniProt P33535)"}}}
{"substance": "DAMGO ([D-Ala^2, N-MePhe^4, Gly-ol]-enkephalin) (peptide)", "values": [{"measurement": "KA (equilibrium dissociation constant) by Furchgott's method from β-arrestin 2 recruitment BRET curves with and without β-FNA, whole cells", "setting": "[1]", "result": 1580, "unit": "nM"}, {"measurement": "KA (equilibrium dissociation constant) by Furchgott's method from G protein activation BRET curves with and without β-FNA, whole cells", "setting": "[2]", "result": 5.6, "unit": "µM"}, {"measurement": "β-arrestin 2 recruitment BRET (μ opioid receptor-RlucII / β-arrestin 2-GFP10) in HEK293T cells, log EC50 (M)", "setting": "[3]", "result": "-5.7 log EC50 (M)"}, {"measurement": "G protein activation BRET (Gαi1-RlucII / GFP10-Gγ2) in HEK293T cells, log EC50 (M)", "setting": "[4]", "result": "-6.48 log EC50 (M)"}, {"measurement": "cell surface receptor loss (ELISA of HA-tagged receptor, 1 h agonist) in HEK293T cells, log EC50 (M)", "setting": "[4]", "result": "-6.14 log EC50 (M)"}, {"measurement": "opioid-evoked GIRK current in rat locus coeruleus neurones (whole-cell patch clamp), log EC50 (M)", "setting": "[5]", "result": "-7.29 log EC50 (M)"}]}
